Test results reported in patent US20260234282A1 (VIB VZW, published 2026).

What was measured:
[1] = target: T1, recombinant human CD163 protein (hCD163-Avi-His6, U-Protein Express BV) (human, UniProt Q86VB7 42-1050, limits assumed, site-specifically biotinylated on the Avi tag in the ELISA format); assay: ELISA-format binding of radiolabeled sdAb to human CD163-Avi-His6 protein, read by gamma-counter
T1 construct: Bought recombinant protein; also called hCD163 protein; recombinant hCD163; not shown: Avi tag and His6 tag
T1 sequence (Q86VB7 42-1050 limits assumed): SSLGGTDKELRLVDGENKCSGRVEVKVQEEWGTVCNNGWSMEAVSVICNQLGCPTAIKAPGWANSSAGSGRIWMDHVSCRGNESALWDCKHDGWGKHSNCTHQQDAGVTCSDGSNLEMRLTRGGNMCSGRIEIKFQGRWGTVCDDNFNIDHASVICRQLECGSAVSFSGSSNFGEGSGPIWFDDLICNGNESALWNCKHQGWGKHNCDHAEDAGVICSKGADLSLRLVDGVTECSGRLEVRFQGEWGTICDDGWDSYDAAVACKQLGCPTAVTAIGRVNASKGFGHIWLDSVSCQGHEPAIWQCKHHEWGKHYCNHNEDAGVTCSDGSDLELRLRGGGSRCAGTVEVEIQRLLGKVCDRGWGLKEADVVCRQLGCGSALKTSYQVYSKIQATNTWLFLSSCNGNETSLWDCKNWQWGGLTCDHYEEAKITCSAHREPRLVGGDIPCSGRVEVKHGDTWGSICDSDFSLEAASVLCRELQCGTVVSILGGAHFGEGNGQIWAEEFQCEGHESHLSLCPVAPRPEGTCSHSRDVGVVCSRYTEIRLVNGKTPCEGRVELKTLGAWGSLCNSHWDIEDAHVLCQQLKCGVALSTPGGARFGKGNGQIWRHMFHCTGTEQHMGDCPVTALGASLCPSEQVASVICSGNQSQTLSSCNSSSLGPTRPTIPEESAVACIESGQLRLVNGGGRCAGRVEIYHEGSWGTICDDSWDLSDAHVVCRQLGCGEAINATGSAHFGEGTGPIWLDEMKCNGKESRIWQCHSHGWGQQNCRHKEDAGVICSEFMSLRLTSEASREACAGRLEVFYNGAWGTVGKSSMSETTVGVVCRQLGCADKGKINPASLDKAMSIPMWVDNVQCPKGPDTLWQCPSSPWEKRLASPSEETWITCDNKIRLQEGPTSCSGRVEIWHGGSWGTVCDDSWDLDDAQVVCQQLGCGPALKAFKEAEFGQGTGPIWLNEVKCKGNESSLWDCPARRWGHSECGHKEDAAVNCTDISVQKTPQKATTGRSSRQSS
From the text: (§1) FIG. 9. Determination of single domain antibody binding affinities after NOTA-conjugation via ELISA and a cell-binding study. (A) Binding of different concentrations of the ⁶⁸Gallium-labeled anti-CD163 single domain antibody (“[⁶⁸Ga]Ga-NOTA-anti-CD163 Nb”) to the human CD163-Avi-Hexahistine protein, compared to binding of a control irrelevant ⁶⁸Gallium-labeled single domain antibody (“[⁶⁸Ga]Ga-NOTA-Irr Nb”) (B) Single domain antibody binding of different concentrations of the […] anti-CD163 single domain antibody to HEK293T cells overexpressing mouse CD163.
(§2) Affinity determination of the [⁶⁸Ga]Ga-NOTA-anti-CD163 sdAb via ELISA was performed as described in the previous paragraph. The radioactive sdAb binding on the hCD163-Avi-His6 protein was measured via a γ-counter.

[2] = target: T1, recombinant human CD163 protein …; assay: ELISA-format binding to hCD163-Avi-His6, bound radioactivity by gamma counter (FIG. 9A); radiolabeled; recombinant hCD163 protein (FIG. 9A)
From the text: as §1, §2

[3] = target: T2, human CD163 on HEK293T cells overexpressing hCD163 (human, UniProt Q86VB7 42-1156); assay: flow cytometry on HEK293T hCD163+ cells; mean ± S.D. of at least 3 independent experiments
T2 construct: whole, on cells; also called HEK hCD163+ cells; HEK293T hCD163+ cells
T2 sequence (Q86VB7 42-1156): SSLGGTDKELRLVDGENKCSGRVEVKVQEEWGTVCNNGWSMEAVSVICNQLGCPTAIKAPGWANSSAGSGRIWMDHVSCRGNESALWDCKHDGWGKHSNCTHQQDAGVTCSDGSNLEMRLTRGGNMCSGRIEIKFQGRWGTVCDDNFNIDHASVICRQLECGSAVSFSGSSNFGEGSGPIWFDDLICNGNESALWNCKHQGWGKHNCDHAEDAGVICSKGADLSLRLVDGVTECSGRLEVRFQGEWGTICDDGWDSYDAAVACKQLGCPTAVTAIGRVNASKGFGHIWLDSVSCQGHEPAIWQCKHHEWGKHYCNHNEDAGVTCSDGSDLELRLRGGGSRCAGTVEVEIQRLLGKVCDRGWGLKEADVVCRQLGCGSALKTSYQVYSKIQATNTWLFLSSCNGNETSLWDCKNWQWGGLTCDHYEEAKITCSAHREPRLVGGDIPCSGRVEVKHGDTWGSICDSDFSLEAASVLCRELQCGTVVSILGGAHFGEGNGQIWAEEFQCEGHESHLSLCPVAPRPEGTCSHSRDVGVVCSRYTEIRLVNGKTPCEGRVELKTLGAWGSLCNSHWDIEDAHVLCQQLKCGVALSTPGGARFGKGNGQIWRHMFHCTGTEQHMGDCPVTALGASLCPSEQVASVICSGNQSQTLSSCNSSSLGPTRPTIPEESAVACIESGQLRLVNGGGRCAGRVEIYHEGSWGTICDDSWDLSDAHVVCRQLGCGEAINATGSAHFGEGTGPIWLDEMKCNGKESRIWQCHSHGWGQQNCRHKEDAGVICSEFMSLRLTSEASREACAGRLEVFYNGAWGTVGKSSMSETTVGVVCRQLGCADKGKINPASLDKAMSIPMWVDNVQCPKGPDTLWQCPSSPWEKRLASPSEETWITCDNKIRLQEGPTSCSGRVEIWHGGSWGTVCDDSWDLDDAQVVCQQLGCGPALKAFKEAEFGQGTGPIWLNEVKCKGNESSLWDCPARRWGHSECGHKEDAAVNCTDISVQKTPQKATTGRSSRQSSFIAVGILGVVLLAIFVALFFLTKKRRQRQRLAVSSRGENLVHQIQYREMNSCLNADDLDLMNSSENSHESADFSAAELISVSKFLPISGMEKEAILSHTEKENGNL
Description: (§3) Serial dilutions of the CD163-targeting sdAb and of the NOTA-conjugated anti-CD163 sdAb were incubated with 500.000 HEK293T cells overexpressing hCD163 or mCD163 in FACS buffer (HBSS (Gibco) supplemented with 1% FBS and 2 mM EDTA (Duchefa Biochemie, Haarlem, The Netherlands)) for 1 h at 4° C. NOTA-sdAb binding was detected by incubation of the cells with a PE tagged anti-VHH Ab (1:500 in FACS buffer, Genscript, Piscataway, NJ, USA) for 30 min at 4° C. Cells were washed once with FACS buffer. Next, sdAb binding was detected by incubation of the cells with an Alexa Fluor®-488 tagged anti-HA antibody (1:1000 in FACS buffer, clone 16B12, Biolegend, San Diego, CA, USA) for 30 min at 4° C. Again, cells were washed once with FACS buffer. sdAb binding was determined using the FACS CANTO II analyser (BD Biosciences, Franklin Lakes, NJ, USA). The mean fluorescent intensity of sdAb binding was determined using FlowJo version 10.

[4] = target: T1, recombinant human CD163 protein …; assay: SPR (Biacore T200), recombinant hCD163 protein
Description: (§4) The affinity of purified CD163-targeting sdAb and of the NOTA-conjugated anti-CD163 sdAb to recombinant hCD163 and mCD163 protein (U-Protein Express BV) was determined using the BIACORE-T200 (GE Healthcare, Freiburg, Germany). Surface plasmon resonance measurements were performed at 25° C. with HEPES buffered saline (HBS, 20 mM of HEPES pH 7.4, 150 mM of NaCl, 3.4 mM of EDTA 0.05% Tween-20) running buffer. The sdAbs were injected consecutively in 2-fold serial dilutions, from 250 to 1 nM. The association step was 100 s, the dissociation step was 200 s, and the two-step regeneration of 35 s at 30 μL·min-1, using 100 mM glycine at pH 3.0, was performed. Local curve fitting analysis was performed using the BIACORE evaluation software (GE Healthcare) by fitting the obtained sensorgrams to theoretical curves, assuming 1-1 binding geometries. For the determination of the equilibrium dissociation constant, the ratio of the association and dissociation rate constants were determined.

[5] = target: T2, human CD163 on HEK293T cells …; assay: flow cytometry on HEK293T hCD163+ cells
From the text: FIG. 2. Binding of the CD163-targeting single domain antibody (23766) to HEK293T cells overexpressing the hCD163 or mCD163 protein. A) Binding of different concentrations of the CD163-specific single domain antibody 23766 or an irrelevant single domain antibody (“Irr Nb”; R3b23) to HEK293T cells overexpressing (A), hCD163 or (B) mCD163 protein. Binding was detected as mean fluorescent intensity (MFI) via the C-terminal His-tag and a fluorescent labeled anti-His antibody using flow cytometry.
as §3, with “Cells were washed once with FACS buffer.” left out

[6] = target: T1, recombinant human CD163 protein …; assay: SPR, recombinant hCD163 protein; mean ± S.D. of at least 3 independent experiments; mean ± S.D of at least 3 independent experiments (Table 1B), not the single value of Table 1A
Description: as §4

[7] = target: T1, recombinant human CD163 protein …; assay: binding to recombinant hCD163 protein (SPR per paragraph 101); NOTA-conjugated, not radiolabeled; recombinant hCD163 protein
Description: as §4

B1: [68Ga]Ga-NOTA-anti-CD163 single domain antibody (VHH)
VHH: DVQLVESGGGLVQPGGSLRLSCAASGITFSSYAVAWFRQASGKEREFVAFIGWDGDTTYYVDSVKGRFTISRDNAKNMVYLQMNSLKPDDTAIYYCARHKTLWRSSWDNRPVQYDYWGQGTQVTVSS
modifications: p-SCN-Bn-NOTA randomly conjugated to lysines, chelating 68Ga
notes: Radiolabeled form of the NOTA conjugate of the lead anti-CD163 sdAb; also called 68Gallium-labeled anti-CD163 single domain antibody; [68Ga]Ga-NOTA-anti-CD163 Nb
B1 was tested, and the “EC50 (read off the curve)” value [1] was ~7 nM and the Kd [2] was 9.11 nM.

B2: CD163-targeting single domain antibody 23766 (VHH, not shown: small tags and cut ends)
VHH: DVQLVESGGGLVQPGGSLRLSCAASGITFSSYAVAWFRQASGKEREFVAFIGWDGDTTYYVDSVKGRFTISRDNAKNMVYLQMNSLKPDDTAIYYCARHKTLWRSSWDNRPVQYDYWGQGTQVTVSS
notes: Llama-derived sdAb cloned in the pMECS phage vector; also called sdAb 23766; sdAb23766
For B2, the Kd [3] was 11.3 nM, the Kd [4] was 3.5 nM and the Kd [5] was 2.5 nM. For the same binder, the Kd [6] was 0.5 nM.

B3: NOTA-conjugated anti-CD163 single domain antibody (VHH)
VHH: DVQLVESGGGLVQPGGSLRLSCAASGITFSSYAVAWFRQASGKEREFVAFIGWDGDTTYYVDSVKGRFTISRDNAKNMVYLQMNSLKPDDTAIYYCARHKTLWRSSWDNRPVQYDYWGQGTQVTVSS
modifications: p-SCN-Bn-NOTA randomly conjugated to lysines; 2.32±0.12 chelator per single domain antibody
notes: The lead anti-CD163 sdAb (23766) conjugated to NOTA; also called NOTA-single domain antibody; NOTA-sdAb
Work on B3 yielded a Kd [7] of 1.55 nM.
